# Assay results: patent US20240026407A1, “MODIFICATION OF SAPONINS” (GLAXOSMITHKLINE BIOLOGICALS SA, priority 2020, published 2024)
# B1: 830 (protein)
# chain: MGTAHDLEQLIAGLTLEEKIALLAGDSLWTVPGIPRLGIRPLKVSDGPAGVRGSRIVPAAAFPAPVLLGATWDPELVERVGQALAEEAETKGAQVVLAPTINLQRTALGGRNFECFSEDPHLTARLAVAYVRGLQSRGIGACIKHYVANDQEFERHTVSVEVDERTLREVYLFPFAVAVAEADPWCVMAAYNRVGGIYCSEHPWLLTTILREELGYQGVVMSDWFATHSTIEALQAGLDLEMPGPPQWRGDKLREAVERGEVALEVIERSARRVLMLYQRAGRFAPGPETSEERAVDRPEHRALIREVGASGMVLLRNEGILPLDLSTVKRVAVIGPHVRRPAVGGGGSAFVRSHPVVTPLEALRESAPQCEFLVEEGAAIFKLIPPLEGEALGSEGAELAFFANPELAGAPVATIRVRTTDLIWLGEVAPGVDASAFSARLRVTMRPEESGRYVLGATAVGQVRVHLDGTLVLDNWTAPQPGRTYFGFGSAEVRAAVDLEAERAYEIVVEYRKFQPGLPLAGFRFGVVHELSDEERIARSVRAAQQADLALLFVGLSPEWESEGFDRESFDLPGAQNALVTAVADANPNTVVVLTAGSPVNLPWLERVGALLLAWYAGEEVGHAVVDVLTGVREPAGRLPFTYPQRLEDTPAFLNYPGEFGRLRYCEGLFIGYRWYDARQIEPLFPFGFGLGYTRFAYRDLVLDRESLGGEEKLTVTCTVENVGERAGSEVVQLYLAFPPGTVRRPLKELRGFRRVHLMPQGSASVSFTVSPRDLAYFDEAAREWVAPPGEYEIMIGAHARDIRLRGRFLLREELRWDAGGRFRDV
# modifications: bacterium
# B2: 841 (protein, listed as Mycetocola reblochoni)
# chain: MTTPRPSLEQKAALTSGRDTWHSESLDDIPVMMMTDGPHGLRQQLQDGGDALGIGNSVPATCFPPAAGLASSWNTGLVERVGVALGTEARATEIRILLGPGLNIKRSPLGGRNFEYFSEDPRVSGELAAAMVTGIQSMGVAATPKHFAVNNQETDRLRVSAEVDERALREIYLSAFERVVTVASPWAFMSSYNRINGVYASENHWLLTELLREEWGFDGLVMSDWGAVNDRVAALAAGLELEMPPTGTDQLIVDAVRTGELDEAVLDRAVDRLRLLAERTERPPLTGYDADAHDDLARSAAQESIVLLKNADVLPLDAAATPRIAVVGEFARTPRYQGGGSSRVVPTRMHSALDALTDALGLGADGLSFSPGFALDGDTPAGAADEAVAAVEAADVAVLFLGLPDGTESEGFDRTTIALPAEQLHLLERAAATTTPVVVVLSNGAVVDVASWEHHADAILEAWLLGQAGGLAIADVLLGTVSPSGKLAETIPLDLADTPSHLSFPGRDGVVVYGESVYVGYRHYDTRRLPVAYPFGFGLSYTRFEYSELEVTATGRNSWTVAATVTNVGERRGAETVQLYIGVEQDRPDRPVHELRGFAKVDLEPGESARVELPVTERDLSHWSVRDGAWRVEKGRYTVELAAHSRDVRLATTITSEGDGVVTRLNGMSTVGEWLDHPYGREQIQWFIDGVDTRFGATAPEMIVMLKQLPIAKLTTFGIGLDSARIERMCAEAAADGERHGEQP
# B3: 845 (protein, listed as Kitasatosporia setae)
# chain: MTQLSMPSSLTTPASGTDHRVLDLERKARLVSGGDTFRTSPEPALGLFPIVCSDGPVGVRGERWDEADTALLLPCATALAASWDEELVARMGGLLAAEARRKGVHVVLAPTLNLHRSPLGGRNFECFSEDPLLTARIGAAYIGGVQALGVAATAKHYVANDSETERLTVDARVDERTLREVYLAPFEAAVRAGVWAVMSAYNRVNGTSMVEHPLLAEPLKGEWGFDGLVVSDWGSVREADGPGAAACDLSMPGPNPAWGPALAAAVRAGRVPAAALDDKVERLLRLAGRVGAFDPPPAGRAPVPADPATRGALRAAAVAGTVLLHNPDRLLPLDEPALRRVAVLGPNAATARVQGGGSASVFPAAPVSPLNGLRAALDPSVEVTHAPGVRTELRPTPLAAADCVLPDGSGPGVLVRYLAADGSPLHTEARATGRVLEPSADVDLTAVRTIEVASRFTAPSAGRWRLGVVGLGALRLEADGAVLLDEYVAPLSDDPTYLHVAPSFRQVELELAAGQGVDLLARRTVEPEHGRVLVLAADRPAAELEREFAHAVELAAAADVAVVVVGTTDEHESEGFDRAGLRLPGRQDELVEAVAAVNPRTVVVVNTGSPVLLPWRERVGAVLTCWFPGQEGGGALAEVLLGRAEPGGRLPTTWPDAEADCPVYATAPSGGRLAYAEGPHLGHRGWLRAGRTPAYWFGHGLGWGEWCYLALGEPSAPAADGSRTVRVALRNDGPRRSRETVQLYLSRPDSELDRPVRWLAGFGAVEAGPGERVEVELRLPQRALQHWSVEDRAWRTEPGTFVLHVGPHSGELPLAAALPVGA
# B4: 871 (protein, listed as Dactylellina haptotyla)
# chain: MLDESVSREIEETLAQLTLEEKISLLAGKDMWRTVPIPDKQVPSIKTSDGPSGARGDSFTGGTKAAFFPSGISMGATFNPELAYEVGQFIGDEVKSKSASVLLAPTACCHRSPLGGRNFESYSEDPLLSGKMASAYIRGVQSKNVAATMKHYAANEQETWRLHVDETIDETTLREIYLKPFEIAMREGRPWAVMSAYNIINGEHCDSNSLTLKQVLRGEWKYEGLVMSDWFGCNSMVDSLLAGLDLEMPGPAKVRPVKELVAKAEKDDSIREAVDKAARRVLTLIAKVGKWKDMTPEAPEISREDPETGKLIRRAGGEGVVLLKNDGALPLQPASLKSIAFVGPNAKATVAGGGGSANLNPNYLTQPYETFVKAIKEIDASIEVPYAQGCIIDRWIPPVNAESGLCRSGGPGSEPGWLVEWFRGHDLKGEVVSSSVFKNSDVFLWDGRPEGLNPAEGYSIRFSGQVSVPEDGNYNIALSTITAGNLYVDGELLIDNWDFKERGNLMMNIGSEEVVKTLELKKGQWYNIEVRNASIWPKDSPRDPPMEEIGALGVRLGLAAVYDNNSLIAQATDSVKNSDAVVIVVGLNNEWESESYDRTQTKLPRNQDELIEEIAKVNKNVIVVNQSGAPIDMPWVENPNVKGIIQAWYAGQEAGNVIADVLLGKQNPSGKLPLTFPVKLEDNPSYNYFPGKDKKVEYTEKLMVGYRYYDTDNVKPRFPFGYGLSYSSFKVGKPVLSTTELSEDGSFTATVEVSNTSAVAGAEVIQLYVQRKTSGTSSIKRPIKELKGFKKIHLQPGETKTAEVTVDDKSLGIWSPEAGKWVVEAGDYEVLVGTSSVYDELAAAGTVVAKSAWSWI
# B5: 832 (protein, listed as Arthrobotrys oligospora)
# chain: MDATTLKEIEETLAQLTLEEKISLLAGKDFWRTVPLPEKQIPSIKVSDGPSGARGDTFSGGQKAAFFPSGILMGATFNPELAYETGALLGEEVKAKSASVLLAPTACCHRSPLGGRNFESYSEDPLLSGKMASGYIRGVQSRGIAATMKHFVANEQETWRLYVDETIDETTLREIYLKPFEIAMREGQPWAIMTAYNIINGVHCDSHPLALKQVLRGEWNYEGLVMSDWFGCNSMVESLLAGLDLEMPGPARKRPIKEFVEAAEKDESIRKAIDDSARRILTLIAKVGKWKDMTPEAPEYSRNDPETGKLIRRAGGEGTVLLKNEGKTLPLQPGSLKKVAFIGPNAKATVAGGGGSASLEPNYLTQPYETFVNAIKEINGDIEVPWVQGCIIDRWVPNIDVEGGFCRVGGPDSEAGLFLEWFRGYEATGEPVATTVFKTSNAFLWDSRPTSISPSEEFSVKFSGQISVPEDGKYNISLSTITASKLYLNGELLIDNWDFKERGNLMMNVGSEEVVKTIELKKGEWYPILVHNSSIWPKDSPRDPPMEEIGALGIRLGVAPVYDNAVLIAEAADAVKDADAVVIVVGLNNEWESESYDRSDTKLPNNQDDLIEEIAKVNQNVIVVNQSGAPVDMPWAENSNVKAIVQAWYAGQEAGHVIADVLLGKQNPSGKLPLTFPIKVQDNPSYFYFPGRDQKVEYTEKLMVGYRYYDTENVETRFPFGYGLSYSTFSIGEPSLSTAELTEGQTFTANIDVSNTSNVAGAEVVQLYVKRPASTSSIKRPVKELKGFKKVHLGTGETATANITVDDKSLGIWSTEAGKWVVEAGDYEVLIGTSSVQDELKPAGKITVKAAWSWI
# B6: 837 (protein, listed as Bifidobacterium magnum)
# chain: MTDNLTIGVTEANELSVKEQASLTSGQDAWHLQGIPSKGIPGYMITDGPHGLRKTTAGNGDEMNLDRSVPATCFPPAAGLSSSWNPQLVREVGEAMGEECVQEKVAVILGPGVNIKRNPLGGRNFEYWSEDPYLAGHEAAGIVDGVQSKGVGASLKHFAVNNQETDRFRVSALVSERALREIYLPAFEYIVKHSRPWTVMCSYNKINGVYSSENHWLLTDVLRKEWGFDGIVMSDWGADHNRVAALNAGLNLEMPPSGTDEQVVQGVENGTLKREQLETMAQAMIDLAHKAEDAMNQDGYRYNVDDHNNTARRAARESMVLLKNEEHVLPVKEQDHIAVIGEFARTPRYQGSGSSRINPTRLTSFLDAAQERGVSLTFAPGYTLDQSPADTQLEQEAVDAAAQADTVLMFMGLPDYDESEGFDRTTLAMPAKQLELLGKVTAANKRVVVILSNGSAVTMTPWNESVPAILETWLLGQAGGVALADIVFGDVSPSGRLAQTIPVELTDDPSTINWPGEEHHVNYGEGVFVGYRYYDTFHKPVAYPFGFGLGYADFAIDEVQVRATGVHAAQVRAKVTNLSQDTAASHVVQVYVRPVEPKVPGEASEHVARPVHELKGFAKVYLEPGQSDTVTIDLDERAFAYWSEEFHDWRIEGGEYGIEVGSSSRDIAATVPVTIAGDGKRKPLTVWNTLDEWRKDPVGKAVAGELMAKLREQGADFTGGDTSTEIFMNTLPINSLTALMGPQGNQVEDFLLGEYARRTQ
# Columns and labels:
# Format in all cases: biochemical, Quillaja saponaria
# [1] = Experiment 5-1: screening of additional glucosidases for deglycosylation with purified QS-18 (0.04 mg/ml) at pH 7.5 and 30 deg C; conditions: pH 7.5, 30 degrees C, 18 hours, LCMS/MS
# Procedure: The 94 additional genes, together with positive control (DNA encoding SEQ ID No. 262) and negative control, were transformed, expressed, lysed and reacted in the same manner as described above for Experiment 4-1, except the reaction was incubated at 30 degrees C. for 18 hours.
# Samples were analysed by LCMS/MS according to the procedure in Experiment 4-1.
# [2] = Experiment 5-2: screening of additional glucosidases for deglycosylation with QS-18 in crude bark extract (80%) at pH 6 and 35 deg C; conditions: CBE 80%, pH 6, 35 deg C, 18 hours; UV HPLC
# Outline: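 Clarified glucosidase lysate (prepared at pH 6) was incubated with pH 6-adjusted crude bark extract at 35 deg C with shaking for 18 hours. Reactions were quenched with MeCN containing 2% AcOH and hexanophenone, then analysed by UV HPLC.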
# [3] = Experiment 5-3: screening of additional glucosidases for deglycosylation with QS-18 in treated bark extract (80%) at pH 6 and 35 deg C; conditions: TBE 80% (QS-21 approx. 4 g/L), pH 6, 35 deg C; UV HPLC
# Procedure: Experiment 5-1 was repeated, replacing CBE with Treated Bark Extract (TBE) at pH 6. TBE was prepared from CBE by PVPP treatment and concentration, to provide TBE with a QS-21 concentration of approximately 4 g/L. TBE was adjusted to pH 6 by dropwise addition of 2M NaOH with stirring.
Molecule,Experiment 5-1 % conv [1],Experiment 5-2 % conv [2],Experiment 5-3 % conv [3]
B1,9.3%,<0.5%,<0.5%
B2,12.3%,<0.5%,<0.5%
B3,9.2%,<0.5%,<0.5%
B4,7.8%,<0.5%,<0.5%
B5,9.8%,<0.5%,<0.5%
B6,7.6%,<0.5%,<0.5%
